Test results published in paper PMC3360964 (Molecular Cell, 2012).

Assays:
Test in all cases: pull-down
[1] = biological target: ELL2-F, affinity-purified (UniProt O00472 1-640)
[2] = biological target: T1, F-AFF4, wild type, affinity-purified (UniProt Q9UHB7 1-1163)
T1 sequence (looked up): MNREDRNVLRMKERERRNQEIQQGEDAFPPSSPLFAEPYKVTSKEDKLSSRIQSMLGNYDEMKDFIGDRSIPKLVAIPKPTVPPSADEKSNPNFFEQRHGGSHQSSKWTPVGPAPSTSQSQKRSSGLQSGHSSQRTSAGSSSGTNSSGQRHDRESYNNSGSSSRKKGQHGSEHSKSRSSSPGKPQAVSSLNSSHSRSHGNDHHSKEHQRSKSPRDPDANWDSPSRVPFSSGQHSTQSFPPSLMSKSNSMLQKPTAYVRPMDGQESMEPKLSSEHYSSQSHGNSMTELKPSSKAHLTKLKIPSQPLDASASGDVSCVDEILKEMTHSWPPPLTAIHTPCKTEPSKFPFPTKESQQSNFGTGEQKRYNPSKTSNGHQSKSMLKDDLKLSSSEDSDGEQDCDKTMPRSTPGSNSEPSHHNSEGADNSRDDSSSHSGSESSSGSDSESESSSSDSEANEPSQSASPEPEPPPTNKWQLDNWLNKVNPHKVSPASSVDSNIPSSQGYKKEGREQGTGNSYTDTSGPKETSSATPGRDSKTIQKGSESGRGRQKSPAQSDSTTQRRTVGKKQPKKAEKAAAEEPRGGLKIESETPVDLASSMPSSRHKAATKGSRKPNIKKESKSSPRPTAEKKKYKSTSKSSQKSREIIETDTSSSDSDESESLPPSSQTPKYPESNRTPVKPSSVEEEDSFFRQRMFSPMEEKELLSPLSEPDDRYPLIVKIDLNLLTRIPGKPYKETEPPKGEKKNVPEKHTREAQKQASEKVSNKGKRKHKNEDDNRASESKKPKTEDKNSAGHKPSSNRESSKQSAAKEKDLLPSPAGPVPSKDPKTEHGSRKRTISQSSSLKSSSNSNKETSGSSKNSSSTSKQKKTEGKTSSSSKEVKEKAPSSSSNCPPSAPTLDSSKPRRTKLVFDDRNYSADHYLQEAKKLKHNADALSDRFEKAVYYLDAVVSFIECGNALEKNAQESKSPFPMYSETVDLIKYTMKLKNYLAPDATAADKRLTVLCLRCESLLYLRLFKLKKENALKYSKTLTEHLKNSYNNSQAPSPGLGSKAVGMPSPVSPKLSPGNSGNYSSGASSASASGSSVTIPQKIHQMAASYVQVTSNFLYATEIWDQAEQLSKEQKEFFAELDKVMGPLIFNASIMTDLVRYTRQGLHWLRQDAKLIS

[3] = biological target: T2, F-AFF4(Δ301–400), affinity-purified (UniProt Q9UHB7 1-1163, Δ301–400)
T2 sequence (looked up): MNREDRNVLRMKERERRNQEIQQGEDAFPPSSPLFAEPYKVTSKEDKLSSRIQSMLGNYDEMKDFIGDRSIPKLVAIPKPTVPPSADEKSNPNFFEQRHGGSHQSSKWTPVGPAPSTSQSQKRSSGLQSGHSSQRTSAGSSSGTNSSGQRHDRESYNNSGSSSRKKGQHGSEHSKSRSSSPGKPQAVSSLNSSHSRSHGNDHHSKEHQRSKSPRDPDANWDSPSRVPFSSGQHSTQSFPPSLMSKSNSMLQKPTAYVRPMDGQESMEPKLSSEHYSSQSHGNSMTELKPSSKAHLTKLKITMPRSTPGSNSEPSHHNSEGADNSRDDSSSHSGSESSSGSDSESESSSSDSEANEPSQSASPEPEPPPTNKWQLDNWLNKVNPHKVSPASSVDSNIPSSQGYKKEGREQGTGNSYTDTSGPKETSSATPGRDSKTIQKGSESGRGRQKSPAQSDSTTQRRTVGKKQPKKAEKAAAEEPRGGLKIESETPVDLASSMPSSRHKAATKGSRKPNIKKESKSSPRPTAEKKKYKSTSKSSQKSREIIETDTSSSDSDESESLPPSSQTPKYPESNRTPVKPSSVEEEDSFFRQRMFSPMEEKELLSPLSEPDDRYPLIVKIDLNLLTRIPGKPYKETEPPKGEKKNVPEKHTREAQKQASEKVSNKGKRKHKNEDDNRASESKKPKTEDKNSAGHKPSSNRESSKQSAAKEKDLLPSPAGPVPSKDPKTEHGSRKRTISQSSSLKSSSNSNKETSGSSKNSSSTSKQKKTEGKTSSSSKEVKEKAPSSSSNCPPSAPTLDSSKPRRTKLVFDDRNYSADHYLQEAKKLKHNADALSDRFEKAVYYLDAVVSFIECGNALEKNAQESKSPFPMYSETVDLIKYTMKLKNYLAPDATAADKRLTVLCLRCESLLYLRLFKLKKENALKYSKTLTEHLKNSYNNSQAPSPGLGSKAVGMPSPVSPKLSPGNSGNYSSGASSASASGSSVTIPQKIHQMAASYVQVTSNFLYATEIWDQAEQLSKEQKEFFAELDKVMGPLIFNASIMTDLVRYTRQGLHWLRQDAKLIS

Chain of ELL2-F, affinity-purified (O00472 whole entry): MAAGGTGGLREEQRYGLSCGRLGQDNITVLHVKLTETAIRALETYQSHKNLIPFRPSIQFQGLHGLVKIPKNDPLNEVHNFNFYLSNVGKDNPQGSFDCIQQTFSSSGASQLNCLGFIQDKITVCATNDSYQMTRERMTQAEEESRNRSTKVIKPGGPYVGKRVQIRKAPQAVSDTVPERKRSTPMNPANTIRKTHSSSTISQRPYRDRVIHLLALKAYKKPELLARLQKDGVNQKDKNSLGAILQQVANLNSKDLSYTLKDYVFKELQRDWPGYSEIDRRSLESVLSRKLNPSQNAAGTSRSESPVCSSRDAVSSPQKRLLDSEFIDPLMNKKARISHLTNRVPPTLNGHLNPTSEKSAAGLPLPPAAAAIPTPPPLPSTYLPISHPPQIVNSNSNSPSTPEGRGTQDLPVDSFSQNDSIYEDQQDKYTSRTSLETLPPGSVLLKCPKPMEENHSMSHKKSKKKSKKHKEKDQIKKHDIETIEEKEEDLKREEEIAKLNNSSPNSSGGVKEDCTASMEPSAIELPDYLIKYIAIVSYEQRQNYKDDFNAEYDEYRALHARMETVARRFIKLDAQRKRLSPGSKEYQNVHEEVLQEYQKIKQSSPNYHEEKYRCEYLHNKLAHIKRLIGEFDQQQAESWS

binding result [1]: binds
binding result [2]: binds
binding result [3]: binds
B1: HA-Siah1 immobilized on anti-HA beads (enzyme, human, UniProt Q8IUQ4-2 1-313, looked up)
chain: MTGKATPPSLYSWRGVLFTCLPAARTRKRKEMSRQTATALPTGTSKCPPSQRVPALTGTTASNNDLASLFECPVCFDYVLPPILQCQSGHLVCSNCRPKLTCCPTCRGPLGSIRNLAMEKVANSVLFPCKYASSGCEITLPHTEKADHEELCEFRPYSCPCPGASCKWQGSLDAVMPHLMHQHKSITTLQGEDIVFLATDINLPGAVDWVMMQSCFGFHFMLVLEKQEKYDGHQQFFAIVQLIGTRKQAENFAYRLELNGHRRRLTWEATPRSIHEGIATAIMNSDCLVFDTSIAQLFAENGNLGINVTISMC
